These results are taken from publication PMC4382702, “Artificial human Met agonists based on macrocycle scaffolds” (Nature Communications, 2015).

Positions of bridges follow the written chain, without caps; N, C: chain ends.

A word on the Kd: it is the equilibrium constant for the complex coming apart. In general, koff refers to the rate constant with which the complex falls apart. What is called kon is a measure of how fast the partners come together.

The test system of assay [1] is c-Ret. The assay can be described thus: Transactivation of c-Ret. In kind it is cell-based, human. How it is done:
EHMES-1 cells were cultured in a 12-well plate until they were 80%–90% confluent. The cells were left untreated or stimulated with hHGF or aML5-PEG3 in the presence or absence of the indicated concentrations of the specific Met kinase inhibitor, SU11274 (Calbiochem). Cells were then lysed with 100 μl of Laemmli sample buffer. Lysates were sonicated and centrifuged for 15 min at 15,000 g. Supernatants were analysed by SDS–PAGE gel electrophoresis and western blotting, using anti-phosphorylated Met (Y1234/1235) mAb or anti-phosphorylated c-Ret (Y905) antibody.

For assay [2], the target named is T1, human Met ectodomain (Homo sapiens, UniProt P08581).
T1 construct: human Met ectodomain-Fc chimera was immobilized; purchased Sino Biological Inc
T1 sequence (P08581 25-932 limits assumed): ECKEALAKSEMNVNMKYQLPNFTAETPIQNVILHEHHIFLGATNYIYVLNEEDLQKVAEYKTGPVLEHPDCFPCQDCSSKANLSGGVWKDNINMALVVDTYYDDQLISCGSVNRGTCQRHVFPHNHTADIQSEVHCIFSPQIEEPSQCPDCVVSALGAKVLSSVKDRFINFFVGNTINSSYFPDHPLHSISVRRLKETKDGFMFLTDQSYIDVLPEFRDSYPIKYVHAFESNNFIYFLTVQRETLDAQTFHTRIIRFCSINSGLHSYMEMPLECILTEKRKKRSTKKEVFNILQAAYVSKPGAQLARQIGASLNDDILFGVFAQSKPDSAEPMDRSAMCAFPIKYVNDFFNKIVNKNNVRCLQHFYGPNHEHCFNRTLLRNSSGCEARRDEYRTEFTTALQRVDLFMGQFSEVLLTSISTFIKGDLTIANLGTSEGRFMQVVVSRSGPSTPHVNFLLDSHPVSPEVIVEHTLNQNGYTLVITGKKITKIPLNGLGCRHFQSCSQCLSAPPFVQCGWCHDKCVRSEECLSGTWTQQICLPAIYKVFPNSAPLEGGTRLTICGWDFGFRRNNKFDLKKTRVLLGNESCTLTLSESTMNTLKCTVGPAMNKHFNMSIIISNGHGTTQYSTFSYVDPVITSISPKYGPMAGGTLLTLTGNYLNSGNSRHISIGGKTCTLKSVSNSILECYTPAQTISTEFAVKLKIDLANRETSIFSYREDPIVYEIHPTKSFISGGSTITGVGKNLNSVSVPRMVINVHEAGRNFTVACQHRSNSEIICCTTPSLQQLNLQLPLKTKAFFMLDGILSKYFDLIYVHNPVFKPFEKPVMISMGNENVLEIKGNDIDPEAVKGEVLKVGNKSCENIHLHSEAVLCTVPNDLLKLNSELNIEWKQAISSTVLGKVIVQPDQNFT
The assay can be described thus: SPR analysis of macrocycle binding to immobilized human Met ectodomain-Fc. How it is done:
(§1) The binding constants of the macrocycles to the Met ectodomain were determined by SPR analysis using a Biacore T200 machine (GE Healthcare). The running buffer was HBS EP+ buffer (10 mM Hepes pH 7.4, 150 mM NaCl, 3 mM EDTA and 0.05% (v/v) SurfactantP20) containing 0.1% DMSO. To assess the interaction between human Met and the macrocycles, human Met ectodomain-Fc chimera was immobilized to a surface density of 1,200–1,600 response units (RUs) on a CM5 sensor chip using a human antibody capture kit (GE Healthcare). Macrocycle binding was tested by injecting varying concentrations of the macrocycle at a flow rate of 30 μl min^−1. Binding was quantified by a single-cycle kinetics method. To assess whether macrocycles and hHGF interacted with human, mouse and canine Met, each biotinylated macrocycle or hHGF was immobilized to a surface density of 200–500 RUs (for biotinylated macrocycles) or ~2,200 (for biotinylated hHGF) RUs on a CAP sensor chip using a Biotin CAPture Kit (GE Healthcare), following the standard protocol. Met binding was tested by injecting varying concentrations of the macrocycle at 30 μl min^−1 and quantifying by a single-cycle kinetics method. All data were fitted to the standard 1:1 binding model.

For assay [3], the target named is T2, Met (Y1234/1235) (Homo sapiens, UniProt P08581).
T2 construct: endogenous in cells; host or cells: EHMES-1
T2 sequence (P08581 308-1390 limits assumed): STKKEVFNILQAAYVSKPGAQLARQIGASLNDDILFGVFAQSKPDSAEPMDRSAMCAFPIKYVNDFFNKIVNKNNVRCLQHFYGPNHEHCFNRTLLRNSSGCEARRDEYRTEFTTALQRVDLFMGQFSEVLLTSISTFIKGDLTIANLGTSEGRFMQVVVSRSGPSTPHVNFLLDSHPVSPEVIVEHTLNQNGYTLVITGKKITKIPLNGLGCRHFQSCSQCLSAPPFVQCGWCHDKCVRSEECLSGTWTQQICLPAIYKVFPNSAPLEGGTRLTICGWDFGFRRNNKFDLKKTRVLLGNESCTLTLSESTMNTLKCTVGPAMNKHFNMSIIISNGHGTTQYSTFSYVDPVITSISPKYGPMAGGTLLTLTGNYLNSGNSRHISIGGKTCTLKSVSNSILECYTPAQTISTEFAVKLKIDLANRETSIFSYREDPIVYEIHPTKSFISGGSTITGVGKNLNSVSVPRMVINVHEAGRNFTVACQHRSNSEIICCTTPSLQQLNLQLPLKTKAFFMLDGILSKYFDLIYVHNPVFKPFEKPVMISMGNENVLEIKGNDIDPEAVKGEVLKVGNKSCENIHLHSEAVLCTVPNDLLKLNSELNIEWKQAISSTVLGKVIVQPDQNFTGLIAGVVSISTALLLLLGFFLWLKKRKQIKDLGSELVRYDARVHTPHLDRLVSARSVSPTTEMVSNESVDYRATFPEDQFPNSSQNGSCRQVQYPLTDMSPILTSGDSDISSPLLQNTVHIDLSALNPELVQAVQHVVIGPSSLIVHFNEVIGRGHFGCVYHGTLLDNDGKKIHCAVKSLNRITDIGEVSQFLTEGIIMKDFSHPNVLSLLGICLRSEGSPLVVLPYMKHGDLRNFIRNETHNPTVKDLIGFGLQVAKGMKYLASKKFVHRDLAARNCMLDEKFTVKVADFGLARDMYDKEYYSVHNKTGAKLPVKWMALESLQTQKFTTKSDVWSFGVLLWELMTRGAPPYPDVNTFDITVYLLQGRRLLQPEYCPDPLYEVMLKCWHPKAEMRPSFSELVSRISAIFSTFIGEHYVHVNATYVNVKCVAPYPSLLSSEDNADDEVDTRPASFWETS
T2 sequence (P08581 25-307 limits assumed): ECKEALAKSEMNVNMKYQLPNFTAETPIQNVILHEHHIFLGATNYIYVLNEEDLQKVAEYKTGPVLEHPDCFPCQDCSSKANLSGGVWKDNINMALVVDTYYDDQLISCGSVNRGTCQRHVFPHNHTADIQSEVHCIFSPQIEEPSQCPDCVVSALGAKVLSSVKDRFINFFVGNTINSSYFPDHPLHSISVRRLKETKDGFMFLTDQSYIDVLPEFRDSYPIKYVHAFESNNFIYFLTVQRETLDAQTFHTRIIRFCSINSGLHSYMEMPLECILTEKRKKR
The assay can be described thus: Cell-based phospho-Met ELISA. Conditions: EHMES-1 cells. The method, then:
EHMES-1 cells (2 × 10^4 cells per well) were seeded in a 96-well black μClear-plate (Greiner Bio-One). After 24 h, the cells were stimulated with hHGF or dimeric macrocycle in RPMI1640 medium supplemented with 10% FBS for 10 min. The cells were washed with ice-cold PBS, fixed with 4% paraformaldehyde (PFA) in PBS for 30 min and washed three times with PBS. The cells were blocked with 5% goat serum, 0.02% Triton X-100 in PBS for 30 min and then incubated for 12 h in phospho-Met (Tyr1234/1235) (D26) XP rabbit mAb diluted 1:1,000 in 1% goat serum in PBS at 4 °C. The cells were washed three times with PBS and incubated for 1 h in HRP-conjugated anti-rabbit goat antibody diluted 1:1,000 in 1% goat serum in PBS. Following incubation, the cells were washed four times with PBS. Chemiluminescence was developed with ImmunoStar LD reagent (Wako) and measured by ARVO MX (Perkin Elmer). Relative Met phosphorylation was calculated as (Chemiluminescence unit of sample−chemiluminescence unit of mock control)/(chemiluminescence unit of 1.3 nM hHGF−chemiluminescence unit of mock control).

For assay [4], the system named is RPTEC. In words: Branching morphogenesis assay in RPTEC. Type of assay: cell-based, human. Conditions: RPTEC in collagen gels, 8 days. How it is done: RPTEC (2 × 10^4 cells) were suspended in 400 μl Cellmatrix type IA collagen solution (Nitta Gelatin) in a 48-well plate and allowed to gel for 60 min at 37 °C, according to the manufacturer’s instructions. After gelation, 500 μl REBM supplemented with 0.5% FBS and 2.4 mM L-alanyl-L-glutamine, with or without hHGF (0.42 nM, 1.3 nM) or macrocycles (30 nM, 100 nM), were added to each well. Cells were cultured for 8 days, replacing the culture medium (with or without hHGF or dimeric macrocycle) every second day. HuCCT1 (1 × 10^4 cells) were suspended in 400 μl Cellmatrix type IA collagen solution in a 48-well plate and were allowed to gel for 60 min at 37 °C. After gelation, 500 μl RPMI1640 medium supplemented with 10% FBS, with or without 0.38 nM hHGF or 20 nM dimeric macrocycle, was added to each well. Cells were cultured for 8 days, replacing the culture medium (with or without hHGF or dimeric macrocycle) every second day. TAC-2 cells (4 × 10^3 cells) were suspended in 400 μl type I collagen solution (BD Biosciences) in a 48-well plate. After gelation, 500 μl DMEM supplemented with 10% FBS, with or without hHGF or dimeric macrocycle, was added to each well. Cells were cultured for 7 days, replacing the culture medium (with or without hHGF or dimeric macrocycle) every second day.

Assay [5] deals with T3, murine Met ectodomain (Mus musculus, UniProt P16056).
T3 construct: murine Met ectodomain-Fc chimera proteins; purchased Sino Biological Inc
T3 sequence (P16056 25-931 limits assumed): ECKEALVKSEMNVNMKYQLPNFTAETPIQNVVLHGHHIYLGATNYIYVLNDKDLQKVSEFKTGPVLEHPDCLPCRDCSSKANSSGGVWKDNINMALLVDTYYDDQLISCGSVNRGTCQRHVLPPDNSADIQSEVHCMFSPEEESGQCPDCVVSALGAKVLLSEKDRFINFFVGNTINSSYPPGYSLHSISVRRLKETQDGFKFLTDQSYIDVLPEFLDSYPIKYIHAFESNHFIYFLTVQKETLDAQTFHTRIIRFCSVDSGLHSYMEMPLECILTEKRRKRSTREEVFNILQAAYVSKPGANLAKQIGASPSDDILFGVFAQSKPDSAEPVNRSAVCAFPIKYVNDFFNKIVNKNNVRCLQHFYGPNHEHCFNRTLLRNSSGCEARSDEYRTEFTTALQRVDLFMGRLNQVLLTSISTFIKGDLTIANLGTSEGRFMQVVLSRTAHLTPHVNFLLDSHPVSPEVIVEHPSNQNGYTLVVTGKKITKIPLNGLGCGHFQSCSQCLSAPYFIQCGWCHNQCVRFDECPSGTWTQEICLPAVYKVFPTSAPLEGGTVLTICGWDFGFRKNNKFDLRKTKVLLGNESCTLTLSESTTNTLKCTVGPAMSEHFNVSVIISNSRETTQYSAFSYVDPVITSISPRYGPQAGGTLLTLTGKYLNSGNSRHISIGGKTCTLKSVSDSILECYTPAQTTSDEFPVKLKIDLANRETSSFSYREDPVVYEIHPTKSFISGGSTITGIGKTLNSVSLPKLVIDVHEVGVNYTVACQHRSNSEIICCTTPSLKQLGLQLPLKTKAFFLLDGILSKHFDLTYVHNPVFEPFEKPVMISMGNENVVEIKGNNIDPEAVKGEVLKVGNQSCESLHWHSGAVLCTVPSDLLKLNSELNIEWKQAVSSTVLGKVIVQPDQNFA
The assay can be described thus: SPR with biotinylated macrocycle or hHGF immobilized, murine Met ectodomain injected. Conditions: ligand immobilized on streptavidin sensor chip. Type of assay: binding. How it is done:
as §1
(§2) Supplementary Figure 4. SPR sensorgrams of human (blue), murine (red) and […]
(§3) Measured curves are shown in blue, red and green, and fitted curves are shown in black. […]

The target of assay [6] is T4, canine Met ectodomain (Canis lupus familiaris, UniProt Q75ZY9).
T4 construct: canine Met ectodomain were purchased from Sino Biological Inc; purchased Sino Biological Inc
T4 sequence (Q75ZY9 25-935 limits assumed): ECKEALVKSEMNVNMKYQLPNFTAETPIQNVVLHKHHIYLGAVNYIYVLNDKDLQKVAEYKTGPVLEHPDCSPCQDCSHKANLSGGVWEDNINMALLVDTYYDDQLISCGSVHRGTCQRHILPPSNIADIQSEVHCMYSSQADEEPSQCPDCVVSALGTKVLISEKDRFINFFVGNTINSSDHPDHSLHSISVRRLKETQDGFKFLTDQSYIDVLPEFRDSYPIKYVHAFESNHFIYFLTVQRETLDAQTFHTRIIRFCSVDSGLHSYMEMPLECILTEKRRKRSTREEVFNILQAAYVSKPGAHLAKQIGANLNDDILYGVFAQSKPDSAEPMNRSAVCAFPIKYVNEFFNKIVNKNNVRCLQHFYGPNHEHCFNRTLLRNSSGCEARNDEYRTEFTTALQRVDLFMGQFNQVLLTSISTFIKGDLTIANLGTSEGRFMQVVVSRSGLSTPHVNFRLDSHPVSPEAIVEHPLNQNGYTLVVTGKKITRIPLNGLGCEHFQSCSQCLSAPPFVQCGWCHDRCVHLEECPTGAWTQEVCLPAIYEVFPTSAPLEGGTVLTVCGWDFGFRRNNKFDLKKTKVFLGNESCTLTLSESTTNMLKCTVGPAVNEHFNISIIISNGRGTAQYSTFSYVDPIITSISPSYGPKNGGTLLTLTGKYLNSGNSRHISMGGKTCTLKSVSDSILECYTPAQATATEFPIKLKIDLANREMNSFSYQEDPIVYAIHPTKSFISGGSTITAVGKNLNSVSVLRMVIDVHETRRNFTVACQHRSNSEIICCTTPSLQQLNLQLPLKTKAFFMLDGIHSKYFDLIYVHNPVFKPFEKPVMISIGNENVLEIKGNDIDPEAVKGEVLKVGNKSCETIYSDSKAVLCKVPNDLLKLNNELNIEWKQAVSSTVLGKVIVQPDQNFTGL
In words: SPR with biotinylated macrocycle or hHGF immobilized, canine Met ectodomain injected. In kind it is binding. As to conditions: ligand immobilized on streptavidin sensor chip. The method, then: as §1, §2, §3

In assay [7] the test system is HPAEC. In words: DNA synthesis (BrdU incorporation). Conditions: 30 nM dimeric macrocycle or 0.25 nM hHGF, 20 h. In kind it is cell-based, human. The method, then: Normal HPAECs were maintained in MCDB 131 medium supplemented with 5% FBS and 1.2 nM of basic fibroblast growth factor. Cells were serum starved for 24 h and then stimulated with 30 nM dimeric macrocycle or 0.25 nM hHGF in the presence of 5% FBS and 10 μM BrdU for 20 h. The cells were fixed in 4% PFA in PBS for 30 min, permeabilized with 0.2% Triton X-100 in PBS for 5 min, treated with 2 M HCl for 20 min and neutralized with 0.1 M sodium tetraborate for 5 min. The treated, neutralized cells were incubated with anti-BrdU primary antibody (BD Biosciences) for 2 h and subsequently stained with a fluorescently labelled secondary antibody for 30 min. The nuclei were stained with DAPI. BrdU incorporation was analysed by Biozero fluorescence microscopy (Keyence).
(Dividing cells build labelled thymidine or BrdU into new DNA.)

In assay [8] the test system is HCC827 cells. The assay can be described thus: Cell growth assay in gefitinib-treated HCC827 cells. Type of assay: cell-based, human. Conditions: HCC827 cells with 1 µM gefitinib.
Procedure: Cells were plated at 2,500 cells per well in 96-well plates for calcein-AM staining or 7,500 cells per well in 48-well plates for cell counting. For HUVEC and HDMEC, plates were pre-coated with gelatin (Difco Laboratories, 0.1% for 1 h at 37 °C). After 3 h, the medium was removed and replaced with medium as follows: HUVEC and HDMEC were cultured in endothelial cell basal medium supplemented with 2% (HUVEC) or 1% (HDMEC) FCS, and 90 μg ml^−1 heparin, with or without hHGF or dimeric macrocycle. RPTEC were cultured in REBM supplemented with 0.5% FBS and 2.4 mM L-alanyl-L-glutamine, with or without hHGF or dimeric macrocycle. NHEK was cultured in KBM2 supplemented with 0.4% bovine pituitary extract, 0.33 μg ml^−1 hydrocortisone, 0.39 μg ml^−1 epinephrine, 10 μg ml^−1 transferrin and 1.8 mM CaCl2, with or without hHGF or dimeric macrocycle. […] The culture media (with or without hHGF or dimeric macrocycle) were replaced every second day. After 6 days, cells were stained with 5 μg ml^−1 calcein-AM (Dojindo) at 37 °C for 15 min. Fluorescence of living cells was detected by ARVO MX. Alternatively, cells were harvested with trypsin–EDTA solution, suspended in culture medium and the cell number was determined using a Countess Automated Cell Counter (Life Technologies). Statistical differences between stimulants were calculated using Student’s t-test.
In assay [9] the test system is Met, Gab1, Akt and Erk1/2. In words: Western blotting of Met and downstream signalling proteins. In kind it is cell-based, human. Conditions: starved EHMES-1 cells, hHGF 2 nM or dimers 100 nM, 10 min. The method, then: (§4) EHMES-1 cells were cultured in a six-well plate until they were 80%–90% confluent. After starvation for 6 h, the cells were stimulated with 2 nM hHGF or with 100 nM aML5-PEG3, aMD4-PEG11, aMD5-PEG11 or aMsD4-C6 for 10 min. Cells were then lysed with 200 μl of lysis buffer 17 (R&D Systems) containing 1 × Complete protease inhibitor cocktail (Roche). Lysates were analysed by SDS–PAGE analysis with 10% polyacrylamide gel and standard western blotting. The respective primary antibodies and HRP-conjugated secondary antibodies were diluted 1:2,000 in Can Get Signal Solution 1 (TOYOBO) and 1:5,000 in Can Get Signal Solution 2 (TOYOBO), respectively. Chemiluminescent signals were developed with Luminata Forte HRP substrate (Merck Millipore) and observed using an ImageQuant LAS 350 machine (GE Healthcare). Relative phosphorylation efficiency was evaluated by the band intensity and statistical differences between stimulants were calculated using Student’s t-test. The phospho-RTK array was performed using Proteome Profiler Human Phospho-RTK Array Kit (R&D Systems). For stimulation of cells with FBS, cells were cultured in the presence of 10% FBS, with or without excess concentrations of hHGF (30 nM) or aML5-PEG3 (3,000 nM) for 10 min. Cell lysates of stimulated EHMES-1 cells were analysed according to the manufacturer’s instructions.
Background: In western blotting, separated proteins are transferred to a membrane and probed.

Assay [10] concerns the target T1, human Met ectodomain. The assay can be described thus: SPR with biotinylated macrocycle or hHGF immobilized, human Met ectodomain injected. In kind it is binding. Conditions: ligand immobilized on streptavidin sensor chip. How it is done:
as §1, §2, §3

The test system of assay [11] is 49 representative human RTKs. The assay can be described thus: Phospho-RTK array. In kind it is cell-based. The method, then: as §4
Assay [12] concerns the target T5, Recombinant human Met ectodomain-Fc chimera protein (human, UniProt P08581 25-932).
T5 construct: Hepatocyte growth factor receptor (Met), human, ectodomain; Captured through its Fc with a human antibody capture kit in a1 and a2; injected as analyte in a3; also called human Met extracellular domain; source: bought: Sino Biological Inc
The assay can be described thus: SPR; Biacore T200; human Met ectodomain-Fc captured (1,200-1,600 RU) on a CM5 chip with a human antibody capture kit; monomeric macrocycle or linear peptide injected at 30 µl/min, single-cycle kinetics; HBS EP+ (10 mM Hepes pH 7.4, 150 mM NaCl, 3 mM EDTA, 0.05% Surfactant P20) with 0.1% DMSO; 1:1 binding model. Conditions: both partners purified. In general terms: SPR reads the build-up and loss of mass on a sensor chip optically.

Where [13] appears, read: 10% FBS, hHGF 30 nM or aML5-PEG3 3,000 nM.

T5 sequence (P08581 25-932, change not shown): as the sequence (P08581 25-932 limits assumed) above

Regarding `Cc1[nH]c(/C=C2\C(=O)Nc3ccc(S(=O)(=O)N(C)c4cccc(Cl)c4)cc32)c(C)c1C(=O)N1CCN(C)CC1` [SU11274, reference compound], in [1] (EHMES-1 cells stimulated with 1 nM hHGF or 100 nM aML5-PEG3), the “effect of Met inhibitor on c-Ret phosphorylation” value is “decreased c-Ret phosphorylation”.

Regarding “aML5-Lin: linear counterpart of aML5 (Ac-YISWNEFNSPNWRFITAG-NH2)”, in [2], the “KD relative to parental peptides” value is listed as “approximately two orders of magnitude higher”.

Turning to “biotinylated hHGF: hHGF biotinylated using NH2-Reactive Biotin, 1.5 biotin per hHGF”, the “Met Y1234/1235 phosphorylation (agonist activity)” value in assay [3] (10 min stimulation, 10% FBS) was “equivalent to that of hHGF”.

As for “hHGF: human recombinant hepatocyte growth factor, positive control”, the branched tubule formation entry in assay [4] is recorded as “developed branched tubules”. Besides, the “binding to murine Met ectodomain” value in assay [5] was “binding of the immobilized hHGF to all three of the ectodomains”. Besides, in [3], the “concentration above which Met phosphorylation level decreased (bell-shaped response)” value is given as “above 5 nM”. For the same molecule, in assay [6], the “binding to canine Met ectodomain” value is on record as “binding of the immobilized hHGF to all three of the ectodomains”. Also, the “DNA synthesis (BrdU incorporation)” value in assay [7] is recorded as “promoted DNA synthesis”. Further, the restoration of proliferation entry in assay [8] is on record as “restored in a dose-dependent manner”. For the same molecule, in assay [9], the “phosphorylation of Met and downstream proteins (Gab1, Akt, Erk1/2)” value was “Met was phosphorylated at the Y1234/1235 and Y1349 residues”. The “binding to human Met ectodomain” value in [10] was “binding of the immobilized hHGF to all three of the ectodomains”. In assay [1] (EHMES-1 cells, FBS-containing media), the c-Ret phosphorylation result is on record as “induced c-Ret phosphorylation in a dose-dependent manner”. Further, in assay [11] (setting [13]), the “Met phosphorylation at excess concentration” value was “strongly induced Met phosphorylation” and the “effect on RTKs phosphorylated in FBS-containing media” value was “neither affected the phosphorylation level of the RTKs”. Moreover, in assay [11] (EHMES-1 cells, 100 nM dimeric macrocycles or 2 nM hHGF, 10 min, without FBS), the RTK phosphorylation selectivity result is listed as “specifically phosphorylated Met”.

B1: aML5 (peptide)
peptide: {CH2CO}-YISWNEFNSPNWRFITCG-NH2
modifications: thioether N-17
SMILES: CC[C@H](C)[C@@H]1NC(=O)[C@H](Cc2ccc(O)cc2)NC(=O)CSC[C@@H](C(=O)NCC(N)=O)NC(=O)[C@H]([C@@H](C)O)NC(=O)[C@H]([C@@H](C)CC)NC(=O)[C@H](Cc2ccccc2)NC(=O)[C@H](CCCNC(=N)N)NC(=O)[C@H](Cc2c[nH]c3ccccc23)NC(=O)[C@H](CC(N)=O)NC(=O)[C@@H]2CCCN2C(=O)[C@H](CO)NC(=O)[C@H](CC(N)=O)NC(=O)[C@H](Cc2ccccc2)NC(=O)[C@H](CCC(=O)O)NC(=O)[C@H](CC(N)=O)NC(=O)[C@H](Cc2c[nH]c3ccccc23)NC(=O)[C@H](CO)NC1=O
notes: thioether macrocycle selected by RaPID from the L-library against human Met ectodomain; also called anti-Met L-library macrocycle 5; source: synthetic peptide (Fmoc SPPS, RP-HPLC purified)
For B1, in assay [12], the Kd came out at 19 nM, the koff was determined as 0.0081 s⁻¹ and the association rate constant (kon) turned out to be 430000 M⁻¹ s⁻¹.

B2: aML5-Lin (peptide)
peptide: Ac-YISWNEFNSPNWRFITAG-NH2
notes: linear form of aML5, Ala in place of the ring-closing Cys; also called linear counterpart of aML5; source: synthetic peptide
B2: in assay [12], the Kd is 1300 nM, the off-rate (koff) turned out to be 0.017 s⁻¹ and the kon came out at 13000 M⁻¹ s⁻¹.
